Measurements taken from patent US11851680B2, “Genetically-modified immune cells comprising a microRNA-adapted shRNA (shRNAmiR)” (Precision Biosciences, Inc., priority 2019, dated 2023).

Legend:
[1] = tested on: SMAD2/3; test: Phosphorylated SMAD2/3 after TGFβ1 stimulation by flow cytometry; assay type: cell-based, human; conditions: BCMA CAR T cells, TGFβ1 500 ng/ml
Text: T cells electroporated with TRC1-2L.1592 were immediately transduced with AAV72112 (encoding the anti-CD19 FMC63 CAR described in Example 1 and a TGFBR2-specific shRNAmiR inserted after the CAR stop codon and before a polyA sequence) or AAV7206 (encoding a control FMC63 CAR with no RNAi). Following six days of culture, CD3-CAR+ cells were purified by FACS using methods described above. In addition, TGFβRII-cells from TGF1-2L.296-edited cultures were sorted in this manner. Sorted cells were rested in serum free medium overnight before being stimulated with 500 ng/ml of recombinant human TGFβ1, the ligand for TGFBR2 (PeproTech). Thirty minutes following TGFβ1 addition, cells were harvested and immediately prepared for staining using Phos-Flow lyse-fix buffer and Phos-Flow Fix-Perm buffer III (BD Biosciences) according to the manufacturer's instructions. Fixed cells were stained with anti-pSMAD2/3-PE (BD Biosciences) and data were acquired on a Beckman-Coulter CytoFLEX-LX. […]
BCMA CAR T cells having knock out of TGFBR2 were prepared with the TGF 1-2L.296 meganuclease and cells having knock down of TGFBR2 were prepared with the 72112 TGFBR2 shRNAmiR as described above. The respective BCMA CAR T cell groups were treated with TGFβ1 (500 ng/ml) and all cell groups were harvested and analyzed as described above. […]

[2] = tested on: TGFBR2; test: TGFBR2 surface expression (knockdown or knockout) on T cells by flow cytometry; assay type: cell-based, human; conditions: for TGFBR2 knockout frequency, percent of cells in the culture: 6 days after electroporation of nuclease RNA, vs mock nucleofected
Description: Nucleofection was carried out in the presence of 2 μg/1×10^6 cells of linearized DNA encoding the CAR and one of the candidate TGFBR2 shRNAmiRs.
Cells were analyzed for TGFBR2 expression at d7, 10, and 14 post-nucleofection using the anti-TGFBR2 antibody MM0056-4F14 (Abcam), and an anti-mouse kappa light chain secondary antibody conjugated to PE (BioLegend). CAR+ cells were identified using anti-FMC63-Alx647, produced in house. The mean fluorescence intensity (MFI) of TGFBR2 signal on the CAR+ was compared to that on the CAR− cells and a percent knockdown was calculated. The frequency of CAR+ events was consistent across the different constructs, ranging from 4.9% to 6.7% (FIG. 12).
Electroporated cells were cultured for 6 days in complete X-VIVO15 medium supplemented with 30 ng/ml IL-2 prior to an analysis of editing efficiency. This was achieved by staining cells with an anti-TGFβRII antibody (Abcam clone MM0056-4F14) followed by anti-mouse IgG κ light chain conjugated to PE (BioLegend clone RMK45). Data were acquired on a Beckman-Coulter CytoFLEX-S or LX.
Mock nucleofected T cells were stained with the anti-TGFβRII antibody and the secondary antibody or the secondary antibody alone to serve as positive and negative controls, respectively, for surface detection of TGFβRII.
A further study was conducted in which the activity of CAR T cells was assessed following various alterations to the TGFβ pathway. […] In some variants, a sequence encoding a shRNAmiR was also introduced at the TRC 1-2 site in the same cassette as the CAR (positioned between the CAR stop codon and a polyA sequence). In one variant, the shRNAmiR was a TGFBR2-specific shRNAmiR (construct 72154) while in another variant a shRNAmiR that is irrelevant to TGFβ function (targeting B2M—construct 72155) was introduced. A third variant of CAR T cells was produced using construct 72155, but they were edited at the TGFBR2 locus using the TGF1-2L296 nuclease described above in order to knockout the TGFBR2 gene. CAR T cells in the TGFBR2 KO group contained 60% KO.

B1: TGF 1-2L.296: engineered meganuclease targeting the TGFBR2 gene (SEQ ID NO: 65) (protein)
chain: MNTKYNKEFLLYLAGFVDGDGSIYACITPKQRSKFKHSLRLRFTVGQKTQRRWFLDKLVDEIGVGYVLDGGGVSEYRLSEIKPLHNFLTQLQPFLKLKQKQANLVLKIIEQLPSAKESPDKFLEVCTWVDQIAALNDSKTRKTTSETVRAVLDSLPGSVGGLSPSQASSATSSASSSPGSGISEALRAGAGSGTGYNKEFLLYLAGFVDGDGSIYACIEPDQSRKFKHTLRLYFEVGQKTQRRWFLDKLVDEIGVGYVYDRGSVSNYRLSEIKPLHNFLTQLQPFLKLKQKQANLVLKIIEQLPSAKESPDKFLEVCTWVDQIAALNDSKTRKTTSETVRAVLDSLSEKKKSSP
Q: How did the “pSMAD2/3 level after TGFβ1” value [1] turn out when B1 was run?
A: decreased pSMAD2/3 to levels comparable to, or lower than, the untreated BCMA CAR T cell control

Q: What about the “TGFBR2 knockout frequency, percent of cells in the culture” value [2] of the same molecule?
A: 69%

Q: And the “TGFBR2 KO in CAR T cell group” value ([2]; BCMA CAR T cells, construct 72155 plus nuclease)?
A: 60%

B2: TGF 1-2x.5: engineered meganuclease targeting the TGFBR2 gene (SEQ ID NO: 64) (protein)
chain: MNTKYNKEFLLYLAGFVDGDGSIYACIEPDQSRKFKHTLRLYFEVGQKTQRRWFLDKLVDEIGVGYVYDRGSVSNYRLSEIKPLHNFLTQLQPFLKLKQKQANLVLKIIEQLPSAKESPDKFLEVCTWVDQIAALNDSKTRKTTSETVRAVLDSLPGSVGGLSPSQASSAASSASSSPGSGISEALRAGAGSGTGYNKEFLLYLAGFVDGDGSIFACITPSQTHKFKHRLFLRFTVGQKTQRRWFLDKLVDEIGVGYVVDSGSVSEYRLSQIKPLHNFLTQLQPFLKLKQKQANLVLKIIEQLPSAKESPDKFLEVCTWVDQIAALNDSKTRKTTSETVRAVLDSLSEKKKSSP
Q: How did the “TGFBR2 knockout frequency, percent of cells in the culture” value [2] turn out when B2 was run?
A: 38.6%
